# Test results as given in publication PMC10655190, “Targeted Mutation of a Non-catalytic Gating Residue Increases the Rate of Pseudomonas aeruginosaD-Arginine Dehydrogenase Catalytic Turnover” (Journal of Agricultural and Food Chemistry, 2023).
# B1: Pseudomonas aeruginosa D-arginine dehydrogenase (PaDADH) (Pseudomonas aeruginosa PAO1) (protein)
# chain: MIEADYLVIGAGIAGASTGYWLSAHGRVVVLEREAQPGYHSTGRSAAHYTVAYGTPQVRALTAASRAFFDNPPAGFCEHPLLSPRPEMVVDFSDDPEELRRQYESGKALVPQMRLLDAEQACSIVPVLRRDKVFGATYDPTGADIDTDALHQGYLRGIRRNQGQVLCNHEALEIRRVDGAWEVRCDAGSYRAAVLVNAAGAWCDAIAGLAGVRPLGLQPKRRSAFIFAPPPGIDCHDWPMLVSLDESFYLKPDAGMLLGSPANADPVEAHDVQPEQLDIATGMYLIEEATTLTIRRPEHTWAGLRSFVADGDLVAGYAANAEGFFWVAAQGGYGIQTSAAMGEASAALIRHQPLPAHLREHGLDEAMLSPRRLSP
# How the values were obtained:
# purified protein [1] = substrate: CC(C)C[C@@H](N)C(=O)O; assay: purified protein; conditions: 1 mM PMS, 20 mM sodium pyrophosphate, pH 10.0, 25 °C
# purified protein [2] = substrate: N=C(N)NCCC[C@@H](N)C(=O)O; assay: purified protein; conditions: 1 mM PMS, 20 mM sodium pyrophosphate, pH 10.0, 25 °C
protein,measurement,setting,value
B1,Km,purified protein [1],6.6 ± 0.5 mM
same,kcat,purified protein [1],73 ± 3 s⁻¹
same,kcat/Km,purified protein [1],11000 ± 880 M⁻¹ s⁻¹
same,Km,purified protein [2],0.033 ± 0.002 mM
